# Results reported in the DeepSol protein solubility set.
# Assay: soluble on expression in E. coli; label from the status in PepcDB or PDB records
row,Sequence,soluble on expression in E. coli
1,MGSHHHHHHDITSLYKKAGSAAAVLEENLYFGGSFTMANVNKTPGKTRRAEVAGGGFAGLTAAIALKQNGWDVRLHEKSSELRAFGAGIYLWHNGLRVLEGLGALDDVLQGSHTPPTYETWMHNKSVSKETFNGLPWRIMTRSHLHDALVNRARALGVDISVNSEAVAADPVGRLTLQTGEVLEADLIVGADGVGSKVRDSIGFKQDRWVSKDGLIRLIVPRMKKELGHGEWDNTIDMWNFWPRVQRILYSPCNENELYLGLMAPAADPRGSSVPIDLEVWVEMFPFLEPCLIEAAKLKTARYDKYETTKLDSWTRGKVALVGDAAHAMCPALAQGAGCAMVNAFSLSQDLEEGSSVEDALVAWETRIRPITDRCQALSGDYAANRSLSKGNMFTPAALEAARYDPLRRVYSWPQ,soluble
2,MSLEIVQEGIAKIIVPEIPKTVSSDMPVFYNPRMRVNRDLAVLGLEYLCKKLGRPVKVADPLSASGIRAIRFLLETSCVEKAYANDISSKAIEIMKENFKLNNIPEDRYEIHGMEANFFLRKEWGFGFDYVDLDPFGTPVPFIESVALSMKRGGILSLTATDTAPLSGTYPKTCMRRYMARPLRNEFKHEVGIRILIKKVIELAAQYDIAMIPIFAYSHLHYFKLFFVKERGVEKVDKLIEQFGYIQYCFNCMNREVVTDLYKFKEKCPHCGSKFHIGGPLWIGKLWDEEFTNFLYEEAQKREEIEKETKRILKLIKEESQLQTVGFYVLSKLAEKVKLPAQPPIRIAVKFFNGVRTHFVGDGFRTNLSFEEVMKKMEELKEKQKEFLEKEGHHHHHH,soluble
3,MNRVKYTIKCTILQGKIKERLIKNIHLNEMNLRNWSTLKWSTRV,not soluble
4,MTKFNWHESAEKKWDSSAEFWNQNSQEMWDSGSRSTIIPFFEQYVKKEAQVLDVGCGDGYGTYKLSSAGYKAVGVDLSEVMIQKGKERGEGPNLSFIKGDLSALPFENEQFESIMAINSLEWTEEPLRALNEIKRVLKKDGYACIAILGPTAKPRENSYLRLYGKDVVCNTMMPWEFEQLAKEQGFKVIDGIGVYKRGVNEKMLGQLPTELQQSLTFLWVFMLKNV,not soluble
5,WSNNYAVDCPQHCDSSECKSSPRCERTVLDDCGCCRVCAAGRGETCYRTVSGMDGMKCGPGLRCQPSNGEDPFGEEFGICKDCPYGTFGMDCRETCNCQSGICDRGTGKCLKFPFFQYSVTKSSNRFVSLTEHDMASGDGNIVREEVVKENAAGSPVMRKWLNPR,soluble
6,MAFEESLVMVSSLSRLSICTSSAYDEAATKNQPDSCVSTSLENFDGAEADGEVSDDGEGKENVRESDSDKETRGFYSLPVTPSRRRRKLTVSGELDANESNKNGSKCSLRRQRREKKKKGVNGECDVGGREGLTVLTRARGGDRSLRMGLQEVKACRDLGFELEVPVPGRISVSTTGSNFDTQTSSGGDSPIATWRISSPGDDPKEVKARLKVWAQAVALASATRQAS,not soluble
7,MGSDKIHHHHHHMFAGAPLSMLLAMPHRPYRDEADLTLLLRWLSDHAPTTFMHPGDLVWWLYQNTQVDPRQALELLFDGEAGGNELQGFGYCDGSWSVLQGLPDLPAHVWDEMVAAAATRAGGKLTVQPHEWDTPQLAALKRAGFELTDNRMVRLVREVQPCDQEAVALPAGFHFADMSGSEVSPEDRVKVHQDVWHPSKVTLEAYGRLQAAPLYRPDLDVMVVAPSGEIAAYALGWFDPGSRTGLMEPVGTRAAFRRQGLGKGLIREVTHRFAALGAQKVTIGSYEKNVAAVALYTSAGYAARGFWVDWETETAAMKEGQDSA,not soluble
8,MGSDKIHHHHHHMILCCGEALIDMLPRETTLGEKGFSPYAGGAVFNTGIALGRLGVASGFFTGLSDDMMGDILRDTLRASHVDFSYCATLSRPTTIAFVKLVDGHATYAFYDENTAGRMITEADLPALGEDCEALHFGAISLIPEPCGSTYEALLNREHKTRVISLDPNIRPGFIKDKAAHMARIRRMAALSDIVKFSDEDLAWFGLDGDEDTLARHWLHHGAKLVVVTRGADGAVGYTADHKVEVPSEKVTVVDTVGAGDTFDAGVLASLKMQNLLTKQQVAKLTEEQIAKALALGSKAAAVTVSRAGANPPFAHEIGL,not soluble
9,FPELMPLRTQWTTIRDEALALQRIQKIRAAEGHTDAGFNSFFRRGWKRFYLKWYGTTHPSAIALCPKTTALLKNIPAIKAAMFAELPPGGDLRPHRDPFAGSMRLHLGLATPNHTSCFIDVDGQRYSWHDGEWVMFDETYIHYARNDTEHNRIILFCDIERPMRWRWAQALNRFVAKHLLAAGTSPN,not soluble
10,SGGCTALVAVSLQGKLYMANAGDSRAILVRRDEIRPLSFEFTPETERQRIQQLAFVYPELLAGEFTRLEFPRRLKGDDLGQKVLFRDHHMSGWSYKRVEKSDLKYPLIHGQGRQARLLGTLAVSRGLGDHQLRVLDTNIQLKPFLLSVPQVTVLDVDQLELQEDDVVVMATDGLWDVLSNEQVAWLVRSFLPGNQEDPHRFSKLAQMLIHSTQGKEDSLTEEGQVSYDDVSVFVIPLHSQGQESSDH,soluble
11,MNSSILLEVFKNAFSSIAEEMGLVLQRTAFSPNIKERRDFSCAVFDKEGNLVAQAAHIPVHLGSMPLSVKEAIKAFKGEFEEGDMVVLNDPYMGGTHLPDITLVAPFFYKGELLFFLANRAHHADVGGATPGSMPLSTSIFQEGFIIPPLKLMKRGELNEDFMKVFLRNVRTPEEREGDFKAQIMANITGIKRLRELIEREGIEKVLFFSKELMNYSERIIRERIKALPEGEYEFEDYMEDDGYGRKDVKIHLKLKVEKEKLIFDFSKSDDQTRGGINAVRAITLSAVYYAVISLLGSDIPVNEGCFRPLEVITRKGSVVDAEFPAGVAGGNVETSQRIVDVVLGAFSKAIPEKVPAASQGTMNHVTIGGINPENGEPFTYYETIGGGMGASAKGDGESAVHSHMTNTLNTPIEALEHYYPILVTEYSIRKGSGGEGMHRGGDGIVREYEFLTDVEVTVLSERRRLAPYGLFGGKPGMPGINLIKTEEGEKEMPSKFSVYLKKGDRLRVETPGGGGYMKEE,not soluble
12,RPPKWTGMDVWAAAICFNTVEAAKKNLPKPESWADLTKPVYKGQIVMPHPASSGTGYLDVSAWLQTLGEKKGWDYMDKLHANMAQYVHSGSKPCKMAAAGEYPIGISFEYRGAQLKEKGAPIDLIYPKEGLGWDLEATAIIKGTKNLEAARKLADFSVSLPAMKLYEQNYAVLAMPGV,not soluble
13,MFKRLMMVALLVIAPLSAATAADQSNPYKLMNEAAQKTFDRLKNEQPKIRANPDYLRDVVDQELLPYVQVKYAGALVLGRYYKEATPAQREAYFAAFREYLKQAYGQALAMYHGQTYQIAPEQPLGDATIVPIRVTIIDPNGRPPVRLDFQWRKNTQTGNWQAYDMIAEGVSMITTKQNEWSDLLRTKGIDGLTAQLKSISQQKITLDEKQLEHHHHHH,soluble
14,MSLQFSVLASGSTGNAFYLETEDHAFLVDAGLSGKAMDGLMAQIGRKLDDVDGIFVTHEHSDHIKGLGVVARKYKLPIYANEKTWKAMENQIGKIDTDQKFVFPMETVKSFGGLDVESFGVSHDAAEPMFYVFHYSGRKLALMTDTGYVSDRMKGIIRSANVFVFESNHDVGMLQMGRYPWSIKRRILSDVGHVSNEDAALAMTDVIGDETSRIYLAHLSQDNNMKELARMSVQQTLASKGFVTGETFDLYDTDPKKATPLWLYNFSMLEHHHHHH,not soluble
15,MSLEFIPRSEQRPIVDTSSTTLDLIYFDLVTLASNEQDIRRLPAHESLYVVLSGQVDIEVDGIMFEAVGRRADIWGGDADSVYAPVGANVRISARGAAAEVAIAGGLCDTRYAAFRITPDEVDAVNVGSSDTHSQRRIVHLLGQRQNGRCGNLLVSELYAGEGCWSGYPPHKHDTEDGDVETRHEELYHYRFQPETGFGSQITYDEDGPVKILMTRNGDTVLVDRGYHPTVTSPGHQGYIFTILVGKHRRGLIQRFDPAHQHLTKTIPGEGHHHHHH,soluble
16,MEQEAERRRQPQIKQEPESEEEEEEKQEKEEKREEPVEEEEEPEQKPCLKPTLRPISSAPSVSSASGNATPNTPGDESPCGIIIPHENSPDQQQPEEHRPKIGLSLKLGASNSPGQPNSVKRKKLPVDSVFNKFEDEDSDDVPRKRKLVPLDYGEDDKNATKGTVNTEEKRKHIKSLIEKIPTAKPELFAYPLDWSIVDSILMERRIRPWINKKIIEYIGEEEATLVDFVCSKVMAHSSPQSILDDVAMVLDEEAEVFIVKMWRLLIYETEAKKIGLVK,soluble
17,MTKYALVGDVGGTNARLALCDIASGEISQAKTYSGLDYPSLEAVVRVYLDEHSVSVEDGCIAIACPITGDWVAMTNHTWAFSIAEMKKNLGFSHLEIINDFTAVSMAIPMLKKEHLIQFGGGEPVDGKPIAVYGAGTGLGVAHLVHVDKRWISLPGEGGHVDFAPNSEEEAMILEILRAEIGHVSAERVLSGPGLVNLYRAIVKSDNRLPENLRPKDITERALADSCIDCRRALSLFCVIMGRFGGDLALTMGTFGGVYIAGGIVPRFLEFFKASGFRGGFEDKGRFKDYVHGIPVYLIVHDNPGLLGSGAHLRQTLGHIL,not soluble
18,MAHHHHHHMAVNARHDLLYECLGLVYELYGGLAEDLQELHDDPLHPHFHRRIARIKRDRERIATELDKRYAKLHPTVKTVYDAFLVRRYYHLADWIEHVERKRERLINDLSPDVMEKTMRMRGIAEQYLRHLRALEHALYEDPLMGLLGGDRGTNVLDQYTPGELAMLRQKAAYFRNMRRFGANQLDADMHTH,not soluble
19,SANLPTVLVTGASGRTGQIVYKKLKEGSDKFVAKGLVRSAQGKEKIGGEADVFIGDITDADSINPAFQGIDALVILTSAVPKMKPGFDPTKGGRPEFIFEDGQYPEQVDWIGQKNQIDAAKVAGVKHIVVVGSMGGTNPDHPLNKLGNGNILVWKRKAEQYLADSGTPYTIIRAGGLLDKEGGVRELLVGKDDELLQTDTKTVPRADVAEVCIQALLFEEAKNKAFDLGSKPEGTSTPTKDFKALFSQVTSRF,soluble
20,MNKRCEEVLRRYFAEVPFIIEKACELAESMLGEGSHGLSHTIRVLDLALQIGRVEGANLEVLALAAILHDIARPLEDKGRIKDHAQEGARIVRSFLSKLRYPHVDEVAHAIEAHRFSTNIEPRTLEAKILSDADKIDALGAIGIARVFMYAGEKGRSIEDSIKHFEEKILRLKDLMYTETGKRIAQERHKIVEEFVNILKKELIAAALEHHHHHH,soluble
21,MSAEAAAVEVQANEAPIVAPIMYKVESSDGQVYEISDEAVKQSNTLSNLISTCVANDVASMDPIPITNVTGNIMKMVIEWCEKHKGETLPVEDDSVPKNITVPEWDTNFLKIDNDVLFDLIVASNFLDVPGLMSYACKMVANMAIGKSPDEMRVLFAIPTDEEDEAAEKAAKEKAEAEKKAITEKDAAEPSTSK,soluble
22,MGSDKIHHHHHHMFQPLLDAFIESASIEKMVSKSPPPPLKIAVANWWGDEEIKEFKKSVLYFILSQRYAITLHQNPNESSDLVFSNPLGAARKILSYQNTKRVFYTGENESPNFNLFDYAIGFDELDFNDRYLRMPLYYAHLHYEAELVNDTTAPYKLKDNSLYALKKPSHHFKENHPNLCAVVNDESDLLKRGFASFVASNANAPMRNAFYDALNSIEPVTGGGSVRNTLGYKVGNKSEFLSQYKFNLCFENSQGYGYVTEKILDAYFSHTIPIYWGSPSVAKDFNPKSFVNVHDFNNFDEAIDYIKYLHTHPNAYLDMLYENPLNTLDGKAYFYQDLSFKKILDFFKTILENDTIYHNNPFIFYRDLHEPLISIDDLRVNYDDLRVNYDDLRVNYDDLRVNYDDLRVNYDDLRVNYDDLRVNYDDLRVNYDDLRVNYDDLRVNYDRLLQNASPLLELSQNTTFKIYRKAYQKSLPLLRTIRRWVKK,not soluble
